Assay results as given in US5854216A, “Marker for growth hormone-releasing factor receptors” (Universite de Montreal, priority 1996, dated 1998).

target: T1, GRF receptor of rat adenopituitary (rat, UniProt Q02644-2); assay: displacement of 125I-Tyr10 hGRF(1-44)NH2 from rat anterior pituitary homogenate
T1 sequence: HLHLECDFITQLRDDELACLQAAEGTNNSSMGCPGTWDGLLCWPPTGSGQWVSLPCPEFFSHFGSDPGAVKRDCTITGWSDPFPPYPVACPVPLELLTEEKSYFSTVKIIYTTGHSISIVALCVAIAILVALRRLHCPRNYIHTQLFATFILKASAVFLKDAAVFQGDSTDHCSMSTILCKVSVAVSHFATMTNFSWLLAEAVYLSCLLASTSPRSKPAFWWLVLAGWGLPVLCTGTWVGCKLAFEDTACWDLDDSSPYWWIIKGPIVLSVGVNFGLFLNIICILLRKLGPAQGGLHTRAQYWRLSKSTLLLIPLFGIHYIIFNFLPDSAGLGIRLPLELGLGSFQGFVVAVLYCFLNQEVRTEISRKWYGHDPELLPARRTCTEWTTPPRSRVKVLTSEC

Substance	IC50	Relative affinity (%) against hGRF(1-29)NH2
npa^5 analogue of hGRF(1-29)NH2 (Table 7, number 7) (from UniProt P01286) (peptide)	27.7 nM	10%
His^1, bpa^9, Nle^27 analogue of hGRF(1-29)NH2 (Table 7, number 17) (from UniProt P01286) (peptide)	4.4 nM	61%
4'-nitro-phenylanalylalanine^9 !hGRF(1-29)NH2 (from UniProt P01286) (peptide)	9.97 nM	27%
npa^4 analogue of hGRF(1-29)NH2 (Table 7, number 6) (from UniProt P01286) (peptide)	8.65 nM	31%
npa0 analogue of hGRF(1-29)NH2 (Table 7, number 2) (from UniProt P01286) (peptide)	–	14%
D-Ala^2, Ala^8, Ala^15, Lys^22 analogue of hGRF(1-29)NH2 (Table 11, No. 13) (from UniProt P01286) (peptide)	–	1330%
D-Ala^2,D-Tyr^10,Lys^22 ! hGRF(1-29)NH2 (from UniProt P01286) (peptide)	–	490%
npa^7 analogue of hGRF(1-29)NH2 (Table 7, number 9) (from UniProt P01286) (peptide)	33.7 nM	7.9%
npa^1 analogue of hGRF(1-29)NH2 (Table 7, number 3) (from UniProt P01286) (peptide)	376 nM	7%
4'-benzoyl-phenylalyl^10 !hGRF(1-29)NH2 (from UniProt P01286) (peptide)	5.77 nM	45%
D-Ala^2, Ala^8, D-Tyr^10, Ala^15, D-Lys^21, Lys^22 analogue of hGRF(1-29)NH2 (Table 11, No. 14) (from UniProt P01286) (peptide)	0.48 nM	500%
octanoyl^30,Cys^31 ! hGRF(1-29)NH2 (from UniProt P01286) (peptide)	–	35%
npa^3 analogue of hGRF(1-29)NH2 (Table 7, number 5) (from UniProt P01286) (peptide)	197 nM	1.3%
